Reference: publication doi:10.1101/2021.04.09.439147 (bioRxiv, 2021)

Target: T1, SARS-CoV-2 S1 subunits-His tag (SARS-CoV-2, reference assumed, UniProt P0DTC2)
T1 construct: source: bought: Sino Biological
Assay: ELISA
Details: both partners purified

B1: FLAG-tagged K-874A (VHH)
VHH: EVQLVESGGGQVETGGSLRLSCQASGSTFSDYVMAWFRQRPGKEREFVATISRNGGTTTYGSSVKGRFTISRDNAKSTVYLQMNSLKPEDTAVYYCYAVGGDGDSWGQGTQVTVSS
notes: also called CoVHH1-FLAG
binding result: binds
